Assay results published in US20240368267A1 (KODIAK SCIENCES, published 2024).
Residue numbers refer to the chain shown, from its start. Numbers in names are those of the source.

Experiments:
[1] = molecular target: VEGF (UniProt P15692-4 27-191, limits assumed); test: cell-based or functional assay
[2] = molecular target: T1, recombinant human IL-6 (human, UniProt P05231 30-212); test: Biacore at 37 C, antibody captured on Protein A, IL-6 as analyte
T1 construct: bought protein; also called interleukin-6
T1 sequence (P05231 30-212 limits assumed): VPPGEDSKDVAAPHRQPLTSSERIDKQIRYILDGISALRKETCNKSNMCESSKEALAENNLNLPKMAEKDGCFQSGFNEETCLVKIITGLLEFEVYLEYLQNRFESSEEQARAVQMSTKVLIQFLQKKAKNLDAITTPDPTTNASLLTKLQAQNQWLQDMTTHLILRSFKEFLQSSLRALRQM

Chain of VEGF (P15692 other isoform, or with tags, fused parts or gaps limits assumed): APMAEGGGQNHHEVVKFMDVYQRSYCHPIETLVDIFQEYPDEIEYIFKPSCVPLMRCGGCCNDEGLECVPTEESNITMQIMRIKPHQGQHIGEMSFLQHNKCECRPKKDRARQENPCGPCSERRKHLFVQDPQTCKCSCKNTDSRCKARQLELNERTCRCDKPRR

B1: VEGFR-AntiIL6 (heavy chain of sequences 1A-2A-3H, light chain of sequence 4A) (bispecific antibody)
fusion: SDTGRPFVEMYSEIPEIIHMTEGRELVIPCRVTSPNITVTLKKFPLDTLIPDGKRIIWDSRKGFIISNATYKEIGLLTCEATVNGHLYKTNYLTHRQTNTIIDVVLSPSHGIELSVGEKLVLNCTARTELNVGIDFNWEYPSSKHQHKKLVNRDLKTQSGSEMKKFLSTLTIDGVTRSDQGLYTCAASSGLMTKKNSTFVRVHEKGGGGSGGGGSEVQLVESGGGLVQPGGSLRLSCAASGFTFSPFAISWVRQAPGKGLEWVAKISPGGSWTYYSDTVTDRFTFSLDTSKSTAYLQMNSLRAEDTAVYYCARQLWGYYALDVWGQGTLVTVSSASTKGPSVFPLAPSSKSTSGGTAALGCLVKDYFPEPVTVSWNSGALTSGVHTFPAVLQSSGLYSLSSVVTVPSSSLGTQTYICNVNHKPSNTKVDKKVEPKSCDKTHTCPPCPAPEAAGAPSVFLFPPKPKDTLMISRTPEVTCVVVDVSHEDPEVKFNWYVDGVEVHNAKTKPREEQYNSTYRVVSVLTVLHQDWLNGKEYKCKVSNKALPAPIEKTISKAKGQPREPQVYTLPPSREEMTKNQVSLTCLVKGFYPSDIAVEWESNGQPENNYKTTPPVLDSDGSFFLYSKLTVDKSRWQQGNVFSCSVMHEALHNHYTQKSLSCSPGK
light: DIQLTQSPSSLSASVGDRVTITCSASISVSYLYWYQQKPGKAPKLLIYDDSSLASGVPSRFSGSGSGTDFTLTISSLQPEDFATYYCQQWSGYPYTFGQGTKVEIKRTVAAPSVFIFPPSDEQLKSGTASVVCLLNNFYPREAKVQWKVDNALQSGNSQESVTEQDSKDSTYSLSSTLTLSKADYEKHKVYACEVTHQGLSSPVTKSFNRGEC
cell-based VEGF stimulated VEGFR reporter assay (KDR/VEGF HEK293 cells, luminescence), IC50 [1]: 0.18 nM

B2: anti-IL-6 antibody, heavy chain S35H, G66D, light chain M32L/M50D/N52S/M88Q (antibody, human IgG1, V domains shown)
VH: EVQLVESGGGLVQPGGSLRLSCAASGFTFSPFAMHWVRQAPGKGLEWVAKISPGGSWTYYSDTVTDRFTFSLDTSKSTAYLQMNSLRAEDTAVYYCARQLWGYYALDIWGQGTLVTVSS
VL: DIQLTQSPSSLSASVGDRVTITCSASISVSYLYWYQQKPGKAPKLLIYDDSSLASGVPSRFSGSGSGTDFTLTISSLQPEDFATYYCQQWSGYPYTFGQGTKVEIK
notes: engineered human IgG1 as m23; also called S35H G66D double mutant with mutagenized light chain
fold increase in affinity relative to the wild-type heavy chain [2]: ~1.3 fold

B3: anti-IL-6 antibody, heavy chain S35H, G66D, light chain wild-type (antibody, human IgG1, V domains shown)
VH: B2 VH
VL: B2 VL with L32M, D50M, S52N, Q88M
notes: engineered human IgG1 as m23; also called S35H G66D double mutant
fold increase in affinity relative to the wild-type heavy chain [2]: ~2 fold
